Assay results taken from the supplement of paper PMC9876800.

System: peptide library, one residue held at a place counted from the S/T acceptor
Assay: relative phosphorylation of the sub-library (ratio to the mean residue at this position); human; higher = residue favoured
In short: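 Spots on streptavidin membranes were phosphorimaged and quantified by densitometry to measure phosphorylation of biotinylated degenerate peptide sub-libraries by purified recombinant kinases, human or orthologue constructs. The reactions ran in 384-well plates for 90 min under kinase-specific conditions, with peptides at 50 μM and 50 μM ATP spiked with γ-32P-ATP. Relative sub-library phosphorylation is the ratio to the mean residue at that position.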

Sequence of SGK3, construct: aa119-end (Q96BR1 119-496, looked up): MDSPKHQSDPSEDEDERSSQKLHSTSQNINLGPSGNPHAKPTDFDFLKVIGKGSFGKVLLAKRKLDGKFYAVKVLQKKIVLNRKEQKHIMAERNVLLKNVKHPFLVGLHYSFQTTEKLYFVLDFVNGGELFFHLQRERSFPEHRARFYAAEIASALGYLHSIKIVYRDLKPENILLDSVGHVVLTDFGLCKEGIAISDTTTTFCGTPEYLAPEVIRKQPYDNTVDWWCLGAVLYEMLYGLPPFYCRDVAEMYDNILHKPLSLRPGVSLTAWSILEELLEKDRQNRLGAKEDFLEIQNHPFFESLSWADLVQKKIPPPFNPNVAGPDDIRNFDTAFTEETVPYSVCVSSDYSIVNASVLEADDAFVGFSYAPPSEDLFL
Sequence of PAK1, construct: aa150-end (Q13153 150-545, looked up): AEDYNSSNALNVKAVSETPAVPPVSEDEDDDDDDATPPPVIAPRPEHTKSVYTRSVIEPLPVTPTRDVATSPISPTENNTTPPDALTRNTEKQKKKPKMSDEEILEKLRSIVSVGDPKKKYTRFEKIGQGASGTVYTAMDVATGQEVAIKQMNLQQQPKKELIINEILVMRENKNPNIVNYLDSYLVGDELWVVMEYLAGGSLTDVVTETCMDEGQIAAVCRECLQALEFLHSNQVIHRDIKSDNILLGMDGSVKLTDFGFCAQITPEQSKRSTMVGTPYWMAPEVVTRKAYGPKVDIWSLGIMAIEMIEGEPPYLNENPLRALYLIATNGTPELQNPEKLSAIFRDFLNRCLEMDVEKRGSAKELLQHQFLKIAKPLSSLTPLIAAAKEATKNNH
Sequence of MASTL, construct: Full length (Q96GX5 whole entry, looked up): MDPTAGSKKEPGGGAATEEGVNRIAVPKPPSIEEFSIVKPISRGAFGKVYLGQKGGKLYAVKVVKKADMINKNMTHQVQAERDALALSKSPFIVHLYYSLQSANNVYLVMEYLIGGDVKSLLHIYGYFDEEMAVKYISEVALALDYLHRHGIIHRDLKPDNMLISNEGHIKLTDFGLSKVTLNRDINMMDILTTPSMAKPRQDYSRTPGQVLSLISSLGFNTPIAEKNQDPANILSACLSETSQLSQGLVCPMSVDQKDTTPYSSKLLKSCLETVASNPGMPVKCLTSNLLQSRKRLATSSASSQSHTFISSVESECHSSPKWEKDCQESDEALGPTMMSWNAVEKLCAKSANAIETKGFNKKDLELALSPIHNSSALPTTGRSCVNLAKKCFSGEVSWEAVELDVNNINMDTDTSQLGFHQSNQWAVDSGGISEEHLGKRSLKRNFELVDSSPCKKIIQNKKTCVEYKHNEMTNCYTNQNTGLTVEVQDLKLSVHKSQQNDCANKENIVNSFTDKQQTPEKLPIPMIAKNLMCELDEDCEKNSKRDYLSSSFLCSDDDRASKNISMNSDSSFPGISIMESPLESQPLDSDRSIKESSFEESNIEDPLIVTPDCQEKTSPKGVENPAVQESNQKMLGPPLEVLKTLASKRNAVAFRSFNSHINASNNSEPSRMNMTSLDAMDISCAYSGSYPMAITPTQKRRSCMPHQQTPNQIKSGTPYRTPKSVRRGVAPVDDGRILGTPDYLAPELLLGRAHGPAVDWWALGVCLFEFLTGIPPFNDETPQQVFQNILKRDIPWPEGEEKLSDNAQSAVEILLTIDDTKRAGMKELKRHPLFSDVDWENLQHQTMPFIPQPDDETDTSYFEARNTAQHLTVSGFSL

SGK3, construct: aa119-end (from UniProt Q96BR1)
relative phosphorylation
Settings | at +1 | at +2 | at +3 | at +4 | at -1 | at -2 | at -3 | at -4 | at -5
A fixed | 0.678 | 1.24 | 1.05 | 1.13 | 1.04 | 1.27 | 0.733 | 1.07 | 1.07
D fixed | 0.294 | 0.423 | 0.901 | 0.91 | 0.498 | 0.2 | 0.186 | 0.53 | 0.497
E fixed | 0.369 | 0.236 | 1.05 | 0.892 | 0.462 | 0.194 | 0.21 | 0.661 | 0.509
F fixed | 2.98 | 0.836 | 1.09 | 0.843 | 0.672 | 0.609 | 0.352 | 0.749 | 0.836
G fixed | 0.575 | 0.701 | 1.21 | 1.24 | 1.77 | 0.992 | 0.663 | 1.23 | 1.18
H fixed | 0.707 | 1.32 | 1.05 | 1.13 | 1.1 | 1.2 | 1.74 | 1.05 | 1.05
I fixed | 1.71 | 1.18 | 0.918 | 0.896 | 0.455 | 0.33 | 0.305 | 0.778 | 0.641
K fixed | 0.807 | 0.987 | 0.995 | 1.08 | 1.71 | 3.22 | 2.08 | 1.73 | 1.94
L fixed | 1.29 | 1.59 | 1.06 | 0.823 | 0.799 | 0.412 | 0.307 | 0.809 | 0.72
M fixed | 1.88 | 1.14 | 1.04 | 0.92 | 1.02 | 0.394 | 0.349 | 0.875 | 0.708
N fixed | 0.635 | 1.02 | 0.927 | 0.904 | 1.08 | 0.7 | 0.454 | 0.753 | 0.773
P fixed | 0.361 | 0.56 | 0.835 | 1.39 | 1.06 | 0.558 | 0.688 | 1.09 | 0.991
Q fixed | 0.812 | 0.625 | 0.996 | 0.983 | 0.804 | 0.676 | 0.613 | 0.988 | 0.752
R fixed | 0.935 | 2.32 | 1.03 | 0.99 | 2.23 | 4.89 | 6.97 | 2.32 | 2.79
V fixed | 1.5 | 1.05 | 1.04 | 0.894 | 0.614 | 0.417 | 0.404 | 0.953 | 0.955
W fixed | 0.596 | 0.761 | 0.849 | 1.08 | 0.633 | 0.437 | 0.409 | 0.672 | 0.753
Y fixed | 0.857 | 1.01 | 0.955 | 0.903 | 1.07 | 0.497 | 0.545 | 0.731 | 0.831
pThr fixed | 0.681 | 0.529 | 0.661 | 0.81 | 0.359 | 0.512 | 0.367 | 0.743 | 0.567
pTyr fixed | 0.778 | 0.681 | 0.97 | 0.875 | 0.801 | 0.44 | 0.552 | 0.76 | 0.791

PAK1, construct: aa150-end (from UniProt Q13153)
relative phosphorylation
Settings | at +1 | at +2 | at +3 | at +4 | at -1 | at -2 | at -3 | at -4 | at -5
A fixed | 0.877 | 1.16 | 0.875 | 1.05 | 0.946 | 0.789 | 0.87 | 1.27 | 1.39
D fixed | 0.338 | 0.472 | 0.959 | 1.32 | 0.592 | 0.203 | 0.558 | 0.825 | 0.785
E fixed | 0.428 | 0.398 | 1.09 | 1.29 | 0.559 | 0.206 | 0.495 | 0.85 | 0.676
F fixed | 0.993 | 1.14 | 1.33 | 0.741 | 0.696 | 0.346 | 0.464 | 0.633 | 0.68
G fixed | 0.895 | 0.726 | 1.22 | 1.24 | 0.782 | 0.526 | 0.869 | 1.4 | 1.44
H fixed | 1.09 | 1.6 | 1.17 | 0.97 | 1.35 | 1.37 | 1.4 | 1.14 | 1.16
I fixed | 1.03 | 1.1 | 0.826 | 0.773 | 0.564 | 0.551 | 0.41 | 0.529 | 0.55
K fixed | 1.18 | 0.604 | 0.775 | 1.08 | 1.72 | 1.32 | 2.34 | 1.71 | 1.88
L fixed | 0.969 | 1.09 | 1.04 | 0.77 | 0.821 | 0.374 | 0.415 | 0.547 | 0.53
M fixed | 1.58 | 1.02 | 0.913 | 0.783 | 0.927 | 0.36 | 0.485 | 0.744 | 0.587
N fixed | 0.895 | 0.885 | 0.971 | 1.11 | 1.19 | 0.518 | 0.965 | 1.01 | 1.03
P fixed | 0.228 | 0.716 | 1.03 | 1.4 | 0.646 | 1.08 | 0.823 | 1.24 | 1.16
Q fixed | 1.3 | 0.766 | 0.897 | 1.2 | 1.11 | 0.673 | 0.952 | 1.08 | 0.964
R fixed | 1.46 | 0.793 | 0.841 | 0.95 | 2.22 | 6.99 | 4.23 | 1.99 | 2.04
V fixed | 0.971 | 0.925 | 0.797 | 0.851 | 0.766 | 0.724 | 0.431 | 0.624 | 0.707
W fixed | 1.57 | 0.978 | 1.03 | 0.806 | 0.886 | 0.369 | 0.703 | 0.756 | 0.668
Y fixed | 1.19 | 2.62 | 1.22 | 0.652 | 1.22 | 0.6 | 0.594 | 0.672 | 0.762
pThr fixed | 0.668 | 0.676 | 0.877 | 1.4 | 0.439 | 0.503 | 0.568 | 0.857 | 0.666
pTyr fixed | 0.886 | 4.31 | 1.28 | 1.09 | 0.672 | 0.392 | 0.853 | 0.808 | 0.675

PRKCG, construct: Full length (from UniProt P05129)
relative phosphorylation
Settings | at +1 | at +2 | at +3 | at +4 | at -1 | at -2 | at -3 | at -4 | at -5
A fixed | 0.569 | 0.495 | 0.701 | 0.922 | 0.946 | 0.862 | 0.699 | 1.09 | 1.16
D fixed | 0.22 | 0.261 | 0.452 | 0.666 | 0.538 | 0.455 | 0.412 | 0.62 | 0.676
E fixed | 0.29 | 0.183 | 0.628 | 0.508 | 0.477 | 0.388 | 0.415 | 0.708 | 0.554
F fixed | 1.46 | 0.545 | 0.842 | 0.662 | 0.479 | 0.72 | 0.771 | 0.818 | 1.21
G fixed | 0.516 | 0.337 | 1.06 | 1.27 | 1.87 | 1.19 | 1.06 | 1.32 | 1.23
H fixed | 0.686 | 1.26 | 1.23 | 1.32 | 0.972 | 1.12 | 1.3 | 1.28 | 1.23
I fixed | 1.37 | 0.507 | 0.723 | 0.507 | 0.311 | 0.329 | 0.381 | 0.49 | 0.572
K fixed | 1.92 | 4.06 | 2.11 | 2.56 | 1.87 | 2.01 | 2 | 1.55 | 1.71
L fixed | 1.34 | 0.484 | 0.932 | 0.531 | 0.548 | 0.409 | 0.469 | 0.506 | 0.589
M fixed | 1.56 | 0.599 | 0.738 | 0.586 | 0.741 | 0.606 | 0.652 | 0.767 | 0.572
N fixed | 0.652 | 0.609 | 1.02 | 1.01 | 1.24 | 1.28 | 1.08 | 1.1 | 0.85
P fixed | 0.333 | 0.334 | 0.516 | 1.36 | 1.16 | 1.16 | 1.12 | 1.09 | 0.937
Q fixed | 1.15 | 0.688 | 0.856 | 1.09 | 1.08 | 1.21 | 0.934 | 1.05 | 0.887
R fixed | 1.98 | 4.33 | 2.43 | 1.97 | 2.85 | 2.99 | 3.78 | 1.94 | 1.71
V fixed | 1.15 | 0.48 | 0.608 | 0.563 | 0.497 | 0.418 | 0.496 | 0.639 | 0.723
W fixed | 0.751 | 0.6 | 1.03 | 0.817 | 0.558 | 1 | 0.707 | 1.23 | 1.54
Y fixed | 1.05 | 1.22 | 1.12 | 0.664 | 0.869 | 0.841 | 0.725 | 0.799 | 0.848
pThr fixed | 0.973 | 0.563 | 0.673 | 0.486 | 0.484 | 0.746 | 0.805 | 0.947 | 0.683
pTyr fixed | 0.794 | 0.916 | 0.911 | 0.498 | 0.875 | 0.842 | 0.973 | 0.86 | 0.8

MASTL, construct: Full length (from UniProt Q96GX5)
relative phosphorylation
Settings | at +1 | at +2 | at +3 | at +4 | at -1 | at -2 | at -3 | at -4 | at -5
A fixed | 0.775 | 1.04 | 0.823 | 1.03 | 0.921 | 0.862 | 0.89 | 1.04 | 1.22
D fixed | 0.64 | 0.706 | 0.711 | 0.972 | 0.826 | 0.719 | 0.63 | 0.69 | 0.66
E fixed | 0.62 | 0.693 | 0.766 | 0.951 | 0.769 | 0.611 | 0.679 | 0.717 | 0.639
F fixed | 1.95 | 1.38 | 1.3 | 0.962 | 0.948 | 1.74 | 1.13 | 1.02 | 1
G fixed | 1.59 | 0.711 | 1.14 | 0.867 | 1.46 | 1.13 | 1.02 | 1.2 | 1.28
H fixed | 0.772 | 0.99 | 0.949 | 1.07 | 1.01 | 1.51 | 1.43 | 1.31 | 1.47
I fixed | 1.21 | 1.23 | 1.19 | 0.878 | 0.543 | 0.585 | 0.66 | 0.696 | 0.841
K fixed | 0.534 | 0.531 | 0.573 | 0.841 | 0.87 | 0.579 | 0.927 | 0.956 | 0.889
L fixed | 1.06 | 0.959 | 1.1 | 0.941 | 1.06 | 0.579 | 0.715 | 0.656 | 0.941
M fixed | 1.71 | 1.15 | 1.15 | 1.02 | 1.25 | 0.846 | 1 | 0.938 | 0.94
N fixed | 0.789 | 0.95 | 0.749 | 1.05 | 1.06 | 1.16 | 1.03 | 1.34 | 1.05
P fixed | 0.664 | 0.65 | 0.704 | 1.31 | 1.59 | 0.804 | 1.01 | 0.965 | 1.07
Q fixed | 1.09 | 0.761 | 0.804 | 1.09 | 1.15 | 0.839 | 0.985 | 0.913 | 0.841
R fixed | 0.614 | 0.579 | 0.555 | 0.726 | 0.889 | 0.767 | 1.55 | 1 | 0.953
V fixed | 0.944 | 1.16 | 0.875 | 0.831 | 0.649 | 0.558 | 0.678 | 0.703 | 0.909
W fixed | 1.03 | 1.6 | 2.11 | 1.28 | 0.913 | 1.82 | 1.23 | 1.35 | 1.27
Y fixed | 1.01 | 1.9 | 1.5 | 1.18 | 1.1 | 1.9 | 1.42 | 1.49 | 1.03
pThr fixed | 1 | 0.912 | 0.984 | 1.27 | 0.833 | 0.827 | 0.939 | 0.844 | 0.94
pTyr fixed | 0.8 | 1.07 | 0.973 | 0.944 | 0.711 | 0.771 | 0.812 | 0.834 | 0.784
